Experimental findings from paper PMC6825267 are described below.

Assay in all cases: EMSA
Background: A gel shift assay detects complexes by their altered migration in electrophoresis.

Series [1] deals with T1, RZ-1C (Arabidopsis thaliana, UniProt Q8RWN5 1-310).
T1 sequence: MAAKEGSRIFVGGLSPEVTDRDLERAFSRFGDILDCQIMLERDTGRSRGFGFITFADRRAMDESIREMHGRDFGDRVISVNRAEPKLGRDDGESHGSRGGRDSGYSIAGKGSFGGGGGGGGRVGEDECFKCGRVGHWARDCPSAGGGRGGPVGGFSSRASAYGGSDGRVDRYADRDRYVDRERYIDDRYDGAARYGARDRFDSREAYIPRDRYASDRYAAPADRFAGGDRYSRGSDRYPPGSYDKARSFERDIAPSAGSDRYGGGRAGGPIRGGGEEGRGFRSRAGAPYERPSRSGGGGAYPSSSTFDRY

Series [2] deals with T2, HIN1 1-267 (N-terminal, MYB/SANT domains) (Arabidopsis thaliana, UniProt F4J686 1-267).
T2 sequence: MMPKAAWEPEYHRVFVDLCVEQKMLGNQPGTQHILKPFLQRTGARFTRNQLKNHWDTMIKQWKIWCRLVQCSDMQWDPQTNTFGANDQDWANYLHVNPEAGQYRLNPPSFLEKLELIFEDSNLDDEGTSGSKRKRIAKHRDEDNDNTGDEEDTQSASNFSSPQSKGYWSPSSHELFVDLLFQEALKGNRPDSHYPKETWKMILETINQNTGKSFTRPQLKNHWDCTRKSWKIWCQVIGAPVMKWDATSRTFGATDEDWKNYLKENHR

The target of series [3] is T1, RZ-1C. The source holds these as a separate data set.
Series [4] addresses T2, HIN1 1-267 (N-terminal, MYB/SANT …). This is another data set of the same source.

Where two headings read alike, the source gives them in different places.

B1: M probe (GAA repeat, AT1G50740 intron 1 flank) (ssRNA)
RNA: UUUCGAGAAGAAGAAGACAUC
Regarding B1, the binding result (in the series with RZ-1C [1]; in series [2]) was “binds” each time.

B2: M2 probe (motif reduced to GAAGA) (ssRNA)
RNA: UUUCGACUUGAAGAUCUCAUC
B2: the binding result (in the series with RZ-1C [3]; in series [4]) was “no binding” in each case.

B3: U probe (GAA repeat to CUU) (ssRNA)
RNA: UUUCGACUUCUUCUUGACAUC
Regarding B3, the binding result (with RZ-1C [1]; in series [2]) was “no binding” in each case.
